Data from the supplement of paper PMC10065799, “High-throughput profiling of sequence recognition by tyrosine kinases and SH2 domains using bacterial peptide display” (eLife, 2023).

Key:
AncSZ = assay: phosphorylation enrichment, bacterial display (enrichment ratio); higher = better substrate or ligand; peptides without Tyr show the background
EPHB1 = EPHB1 (UniProt P54762); assay: as above
EPHB2 = EPHB2 (UniProt P29323); assay: as above
FGFR1 = FGFR1 (UniProt P11362); assay: as above
FGFR3 = FGFR3 (UniProt P22607); assay: as above
Fer (mouse) = assay: as above
Fes = Fes (UniProt P07332); assay: as above
Fyn = Fyn (UniProt P06241); assay: as above
Hck = Hck (UniProt P08631); assay: as above
Jak2 = Jak2 (UniProt O60674); assay: as above
MERTK = MERTK (UniProt Q12866); assay: as above
c-Abl (mouse) = assay: as above
c-Src = assay: as above
Grb2 SH2 = Grb2 SH2 (UniProt P62993); assay: SH2 binding enrichment of the phosphorylated peptide, bacterial display (enrichment ratio); higher = better substrate or ligand; peptides without Tyr show the background
SHP2-C SH2 = assay: as above
c-Src SH2 = assay: as above
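For SH2 binding enrichment of the phosphorylated peptide, bacterial display in this document: peptide library displayed on the E. coli surface as eCPX fusions, selected cells deep-sequenced, score is each peptide's frequency after selection divided by its frequency in the input.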
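For phosphorylation enrichment, bacterial display in this document: 11-residue human phosphosite peptides and single-mutation variants displayed on the E. coli surface, counted by deep sequencing, each peptide's frequency after selection divided by its frequency in the unselected input library; frequency after pTyr selection over input frequency; kinase dosed for 20-30% of maximal phosphorylation in three min.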

Sequence of Hck (P08631 whole entry, looked up): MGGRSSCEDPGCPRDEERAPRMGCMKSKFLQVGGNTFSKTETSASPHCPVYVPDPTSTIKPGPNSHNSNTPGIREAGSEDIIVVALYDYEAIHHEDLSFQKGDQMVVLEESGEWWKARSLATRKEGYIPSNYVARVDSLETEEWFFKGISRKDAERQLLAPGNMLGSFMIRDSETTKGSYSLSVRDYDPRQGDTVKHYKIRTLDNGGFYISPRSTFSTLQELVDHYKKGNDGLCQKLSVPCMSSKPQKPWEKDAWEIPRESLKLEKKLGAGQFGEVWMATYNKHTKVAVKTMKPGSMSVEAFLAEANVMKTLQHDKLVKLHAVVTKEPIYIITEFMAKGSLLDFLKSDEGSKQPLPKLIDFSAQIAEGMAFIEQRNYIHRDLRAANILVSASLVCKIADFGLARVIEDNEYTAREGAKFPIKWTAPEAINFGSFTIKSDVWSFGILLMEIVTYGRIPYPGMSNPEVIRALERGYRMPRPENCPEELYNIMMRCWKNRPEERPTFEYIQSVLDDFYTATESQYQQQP
Sequence of Fes (P07332 whole entry, looked up): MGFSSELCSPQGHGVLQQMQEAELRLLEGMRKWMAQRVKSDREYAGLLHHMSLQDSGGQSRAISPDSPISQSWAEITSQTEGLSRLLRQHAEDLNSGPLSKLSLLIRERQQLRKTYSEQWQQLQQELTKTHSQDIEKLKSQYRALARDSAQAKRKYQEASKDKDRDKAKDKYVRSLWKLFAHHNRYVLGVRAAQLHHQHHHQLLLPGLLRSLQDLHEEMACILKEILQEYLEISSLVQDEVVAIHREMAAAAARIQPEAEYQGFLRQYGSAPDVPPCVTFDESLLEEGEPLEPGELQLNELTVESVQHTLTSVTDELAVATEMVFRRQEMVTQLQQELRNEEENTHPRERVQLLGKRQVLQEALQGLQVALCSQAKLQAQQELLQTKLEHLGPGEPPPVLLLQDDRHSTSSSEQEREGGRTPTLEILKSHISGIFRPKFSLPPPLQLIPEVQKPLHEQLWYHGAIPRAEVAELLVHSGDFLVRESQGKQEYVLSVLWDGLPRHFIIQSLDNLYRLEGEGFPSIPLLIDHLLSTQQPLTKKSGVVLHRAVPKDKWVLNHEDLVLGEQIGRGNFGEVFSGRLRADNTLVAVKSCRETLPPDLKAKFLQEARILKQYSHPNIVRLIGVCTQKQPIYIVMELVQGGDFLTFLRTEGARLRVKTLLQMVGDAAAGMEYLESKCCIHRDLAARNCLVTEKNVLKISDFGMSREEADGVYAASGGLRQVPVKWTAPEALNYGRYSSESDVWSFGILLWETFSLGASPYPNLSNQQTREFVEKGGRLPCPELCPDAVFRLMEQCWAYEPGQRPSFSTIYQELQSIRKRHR
Sequence of EPHB2 (P29323 whole entry, looked up): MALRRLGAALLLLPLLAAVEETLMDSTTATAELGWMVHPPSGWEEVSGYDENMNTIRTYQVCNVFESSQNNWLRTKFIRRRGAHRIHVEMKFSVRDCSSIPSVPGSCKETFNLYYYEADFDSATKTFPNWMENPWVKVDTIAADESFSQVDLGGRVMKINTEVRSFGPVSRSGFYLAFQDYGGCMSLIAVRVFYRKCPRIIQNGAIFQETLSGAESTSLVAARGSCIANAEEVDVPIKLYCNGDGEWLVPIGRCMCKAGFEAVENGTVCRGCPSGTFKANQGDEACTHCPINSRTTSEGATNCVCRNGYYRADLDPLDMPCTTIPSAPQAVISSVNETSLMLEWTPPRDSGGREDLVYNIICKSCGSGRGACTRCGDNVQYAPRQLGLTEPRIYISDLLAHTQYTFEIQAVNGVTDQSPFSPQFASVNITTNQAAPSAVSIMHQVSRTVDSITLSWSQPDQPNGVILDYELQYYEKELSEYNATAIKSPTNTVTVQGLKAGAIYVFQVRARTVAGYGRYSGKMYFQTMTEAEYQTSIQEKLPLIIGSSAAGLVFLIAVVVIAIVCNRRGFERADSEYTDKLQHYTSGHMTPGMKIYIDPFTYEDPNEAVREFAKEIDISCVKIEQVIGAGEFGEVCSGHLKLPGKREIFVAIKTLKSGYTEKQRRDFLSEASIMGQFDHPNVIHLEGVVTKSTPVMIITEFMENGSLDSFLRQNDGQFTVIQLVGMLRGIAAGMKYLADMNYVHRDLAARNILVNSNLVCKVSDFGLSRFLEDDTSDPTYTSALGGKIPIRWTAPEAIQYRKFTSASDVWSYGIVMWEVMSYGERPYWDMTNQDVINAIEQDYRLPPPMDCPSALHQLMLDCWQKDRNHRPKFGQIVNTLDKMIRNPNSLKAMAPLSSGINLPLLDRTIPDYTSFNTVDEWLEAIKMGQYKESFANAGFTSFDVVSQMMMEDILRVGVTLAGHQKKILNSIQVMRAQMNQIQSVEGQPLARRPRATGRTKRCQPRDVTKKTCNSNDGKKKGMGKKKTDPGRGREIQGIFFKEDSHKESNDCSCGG
Sequence of FGFR1 (P11362 whole entry, looked up): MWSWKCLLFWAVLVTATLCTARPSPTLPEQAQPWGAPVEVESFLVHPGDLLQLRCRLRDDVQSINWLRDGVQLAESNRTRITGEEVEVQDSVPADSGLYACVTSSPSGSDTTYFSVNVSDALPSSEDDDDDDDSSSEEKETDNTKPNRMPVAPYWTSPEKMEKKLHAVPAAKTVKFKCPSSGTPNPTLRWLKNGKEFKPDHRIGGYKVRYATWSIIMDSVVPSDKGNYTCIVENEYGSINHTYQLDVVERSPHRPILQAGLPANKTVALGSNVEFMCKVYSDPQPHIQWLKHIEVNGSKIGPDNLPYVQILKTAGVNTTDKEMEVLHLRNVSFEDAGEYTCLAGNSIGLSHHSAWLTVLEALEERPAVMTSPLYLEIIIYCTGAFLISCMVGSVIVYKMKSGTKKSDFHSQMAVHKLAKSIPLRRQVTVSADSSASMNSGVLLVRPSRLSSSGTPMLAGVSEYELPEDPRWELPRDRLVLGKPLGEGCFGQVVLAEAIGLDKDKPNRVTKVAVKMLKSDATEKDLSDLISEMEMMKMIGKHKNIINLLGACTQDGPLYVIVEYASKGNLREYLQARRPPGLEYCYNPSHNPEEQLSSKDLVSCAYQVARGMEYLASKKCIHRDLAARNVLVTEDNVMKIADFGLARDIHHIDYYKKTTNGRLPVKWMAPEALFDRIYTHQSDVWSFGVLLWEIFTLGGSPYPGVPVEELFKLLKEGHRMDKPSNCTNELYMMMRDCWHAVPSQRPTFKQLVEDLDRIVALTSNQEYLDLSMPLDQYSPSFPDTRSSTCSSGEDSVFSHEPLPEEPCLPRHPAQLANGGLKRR
Sequence of MERTK (Q12866 whole entry, looked up): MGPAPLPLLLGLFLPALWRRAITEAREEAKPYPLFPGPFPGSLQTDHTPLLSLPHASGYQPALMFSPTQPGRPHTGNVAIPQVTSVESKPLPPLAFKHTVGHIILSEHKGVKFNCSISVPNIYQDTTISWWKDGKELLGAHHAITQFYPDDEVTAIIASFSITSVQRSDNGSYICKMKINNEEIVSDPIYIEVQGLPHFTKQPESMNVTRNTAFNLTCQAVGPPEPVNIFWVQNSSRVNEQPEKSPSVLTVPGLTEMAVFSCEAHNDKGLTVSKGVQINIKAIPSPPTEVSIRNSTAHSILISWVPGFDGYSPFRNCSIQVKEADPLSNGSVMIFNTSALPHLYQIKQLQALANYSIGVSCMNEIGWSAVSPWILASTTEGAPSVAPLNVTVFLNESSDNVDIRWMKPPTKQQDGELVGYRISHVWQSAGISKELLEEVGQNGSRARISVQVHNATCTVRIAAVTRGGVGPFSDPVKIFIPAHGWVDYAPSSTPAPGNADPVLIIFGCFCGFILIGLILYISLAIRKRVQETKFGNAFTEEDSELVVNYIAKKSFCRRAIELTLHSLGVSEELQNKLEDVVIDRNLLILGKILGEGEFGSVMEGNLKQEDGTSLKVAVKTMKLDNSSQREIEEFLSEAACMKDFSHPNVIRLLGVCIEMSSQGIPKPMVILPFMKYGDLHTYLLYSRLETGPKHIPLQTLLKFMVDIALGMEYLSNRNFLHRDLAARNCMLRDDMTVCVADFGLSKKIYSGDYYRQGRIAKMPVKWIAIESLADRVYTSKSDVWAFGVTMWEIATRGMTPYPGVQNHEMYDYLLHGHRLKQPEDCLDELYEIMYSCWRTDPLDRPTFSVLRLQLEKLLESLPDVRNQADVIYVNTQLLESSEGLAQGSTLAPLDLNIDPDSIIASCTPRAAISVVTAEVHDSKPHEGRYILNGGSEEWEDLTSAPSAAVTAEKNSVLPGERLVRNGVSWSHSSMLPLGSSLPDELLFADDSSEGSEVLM
Sequence of Fyn (P06241 whole entry, looked up): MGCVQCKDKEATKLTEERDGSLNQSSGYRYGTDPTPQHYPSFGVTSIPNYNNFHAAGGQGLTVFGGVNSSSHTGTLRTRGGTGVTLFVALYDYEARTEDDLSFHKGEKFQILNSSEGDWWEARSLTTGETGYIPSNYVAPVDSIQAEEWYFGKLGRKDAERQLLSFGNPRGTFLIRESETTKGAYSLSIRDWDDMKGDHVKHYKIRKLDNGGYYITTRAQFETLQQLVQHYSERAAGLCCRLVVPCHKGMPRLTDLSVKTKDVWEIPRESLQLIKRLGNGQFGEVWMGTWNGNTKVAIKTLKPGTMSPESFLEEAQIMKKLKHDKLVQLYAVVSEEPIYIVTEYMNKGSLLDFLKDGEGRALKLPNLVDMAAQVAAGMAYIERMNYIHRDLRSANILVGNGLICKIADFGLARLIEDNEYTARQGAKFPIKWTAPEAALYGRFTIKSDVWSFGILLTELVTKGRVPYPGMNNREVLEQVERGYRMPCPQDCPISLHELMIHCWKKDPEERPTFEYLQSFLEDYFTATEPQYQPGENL

SH2 binding enrichment (Grb2 SH2) | SH2 binding enrichment (SHP2-C SH2) | SH2 binding enrichment (c-Src SH2) | Sequence | phosphorylation enrichment (AncSZ) | phosphorylation enrichment (EPHB1) | phosphorylation enrichment (EPHB2) | phosphorylation enrichment (FGFR1) | phosphorylation enrichment (FGFR3) | phosphorylation enrichment (Fer (mouse)) | phosphorylation enrichment (Fes) | phosphorylation enrichment (Fyn) | phosphorylation enrichment (Hck) | phosphorylation enrichment (Jak2) | phosphorylation enrichment (MERTK) | phosphorylation enrichment (c-Abl (mouse)) | phosphorylation enrichment (c-Src)
0.821 | 0.683 | 0.57 | AAILGYCRGEA [XPC_Y669] | 0.789 | 0.567 | 0.45 | 0.541 | 0.556 | 0.419 | 1.02 | 0.438 | 0.467 | 0.786 | 0.413 | 0.718 | 0.372
0.757 | 0.526 | 0.593 | AALRLYHVSDS [VIL1_Y256_K254R] | 0.738 | 0.617 | 0.508 | 0.641 | 0.763 | 0.531 | 0.959 | 0.579 | 0.485 | 0.734 | 0.478 | 0.798 | 0.451
0.852 | 0.543 | 0.594 | AAQNCYKVTNG [TPI1_Y105] | 0.725 | 0.37 | 0.421 | 0.523 | 0.536 | 0.391 | 0.905 | 0.411 | 0.408 | 0.665 | 0.411 | 0.738 | 0.356
0.733 | 0.753 | 0.874 | ADDSYYTVRSA [ZAP70_Y493_A495V] | 1.56 | 0.709 | 0.637 | 7.54 | 5.2 | 0.425 | 0.941 | 2.01 | 2.89 | 1.47 | 0.784 | 0.611 | 2.45
0.973 | 1.18 | 0.587 | ADYPDYKYRPR [SOX11_Y116] | 0.673 | 0.48 | 0.489 | 0.594 | 0.613 | 0.342 | 0.718 | 0.389 | 0.505 | 0.601 | 0.378 | 0.461 | 0.409
0.783 | 0.816 | 0.42 | AEFGLYGAMVR [VSX2_Y222_YF] | 1.07 | 0.741 | 0.719 | 0.538 | 0.715 | 0.828 | 1.21 | 5.3 | 6.05 | 0.868 | 0.674 | 0.678 | 3.61
0.89 | 0.789 | 0.633 | AEFGLYRAMVR [VSX2_Y222_G223R_YF] | 0.753 | 0.731 | 0.595 | 0.484 | 0.673 | 0.431 | 0.779 | 0.821 | 4.12 | 0.726 | 0.843 | 1.48 | 0.855
0.811 | 0.809 | 0.412 | AHLTEYLSTHF [UQCRC1_Y219_D215H_YF] | 0.902 | 0.471 | 0.499 | 0.529 | 0.577 | 0.44 | 0.915 | 0.471 | 0.526 | 0.837 | 0.408 | 0.676 | 0.525
0.869 | 0.673 | 0.541 | AIMSFYATLID [RYR1_Y2426_A2428T] | 1.31 | 1.05 | 0.836 | 0.601 | 1.09 | 0.791 | 1.51 | 0.508 | 0.585 | 1.83 | 0.59 | 1.07 | 0.486
0.674 | 0.495 | 0.511 | AIYRRYSKFFD [SH3PXD2B_Y45] | 0.989 | 0.603 | 0.568 | 0.509 | 0.555 | 0.383 | 1.03 | 0.485 | 0.594 | 0.83 | 0.596 | 0.783 | 0.636
4.17 | 0.814 | 0.743 | AKKVFYVNETR [SHH_Y253_I255N] | 0.576 | 0.594 | 0.448 | 0.42 | 0.494 | 0.338 | 0.737 | 0.307 | 0.338 | 0.526 | 0.363 | 0.459 | 0.319

Second part, the sequence before the results:

Sequence | SH2 binding enrichment (Grb2 SH2) | SH2 binding enrichment (SHP2-C SH2) | SH2 binding enrichment (c-Src SH2) | phosphorylation enrichment (AncSZ) | phosphorylation enrichment (EPHB1) | phosphorylation enrichment (EPHB2) | phosphorylation enrichment (FGFR1) | phosphorylation enrichment (FGFR3) | phosphorylation enrichment (Fer (mouse)) | phosphorylation enrichment (Fes) | phosphorylation enrichment (Fyn) | phosphorylation enrichment (Hck) | phosphorylation enrichment (Jak2) | phosphorylation enrichment (MERTK) | phosphorylation enrichment (c-Abl (mouse)) | phosphorylation enrichment (c-Src)
AACQHYGVRTC [NR4A2_Y275] | 1 | 0.896 | 0.721 | 0.592 | 0.381 | 0.412 | 0.472 | 0.405 | 0.379 | 0.581 | 0.452 | 0.421 | 0.513 | 0.406 | 0.424 | 0.408
AALVQYYMEHH [PTPN11_Y80_E76A] | 0.991 | 1.16 | 0.742 | 0.937 | 1.9 | 1.17 | 0.722 | 0.767 | 0.415 | 0.912 | 0.529 | 0.813 | 0.745 | 0.68 | 0.49 | 0.541
ADELEYSRTGL [MMUT_Y287_G284E] | 0.747 | 0.623 | 0.457 | 1.11 | 0.596 | 0.568 | 0.402 | 0.645 | 0.437 | 0.972 | 0.482 | 0.517 | 0.741 | 0.407 | 0.644 | 0.464
ADLLDYIKALN [HPRT1_Y81] | 0.786 | 0.607 | 0.468 | 1.07 | 0.625 | 0.558 | 0.434 | 0.695 | 0.531 | 1.2 | 0.445 | 0.52 | 0.928 | 0.48 | 0.754 | 0.484
ADQLDYIKALN [HPRT1_Y81_L78Q] | 0.914 | 0.559 | 0.491 | 1.06 | 0.784 | 0.474 | 0.458 | 0.608 | 0.451 | 1.22 | 0.492 | 0.526 | 0.861 | 0.441 | 0.708 | 0.408
ADRSCYDLSCH [GARS1_Y467] | 0.79 | 0.968 | 0.985 | 0.92 | 0.486 | 0.528 | 0.433 | 0.586 | 0.431 | 0.91 | 0.604 | 0.561 | 0.798 | 0.457 | 0.631 | 0.472
AEQDWYHGAIP [FER_Y461] | 0.725 | 0.478 | 0.634 | 1.06 | 0.481 | 0.546 | 1.72 | 1.54 | 0.559 | 0.921 | 0.846 | 1.22 | 0.802 | 0.443 | 0.646 | 1.19
AEVIWYKGDEV | 0.822 | 0.684 | 0.475 | 1.13 | 0.707 | 0.572 | 0.433 | 0.784 | 0.491 | 1.41 | 0.394 | 0.602 | 1.42 | 0.399 | 1.15 | 0.474
AFHGEYIPTVF [RAC2_Y32_P29H] | 0.91 | 0.59 | 0.682 | 0.859 | 0.554 | 0.447 | 0.602 | 0.635 | 0.391 | 0.809 | 0.445 | 0.412 | 0.571 | 0.432 | 0.575 | 0.419
AFQGKYTPSGQ [ALDOA_Y343_C339Y_YF] | 0.759 | 0.803 | 0.592 | 0.388 | 0.376 | 0.276 | 0.309 | 0.328 | 0.253 | 0.446 | 0.273 | 0.266 | 0.547 | 0.346 | 0.432 | 0.298
AFSTVYKGLWI [EGFR_Y727_G724S] | 0.949 | 1.5 | 0.653 | 1.01 | 0.578 | 0.498 | 0.504 | 0.67 | 0.677 | 1.1 | 0.433 | 0.445 | 1.1 | 0.395 | 0.814 | 0.455
AGADGYGYLAP [FOXL2_Y186] | 0.759 | 0.339 | 1.09 | 0.576 | 0.387 | 0.464 | 0.37 | 0.457 | 0.26 | 0.622 | 0.361 | 0.468 | 0.538 | 0.364 | 0.443 | 0.372
AGIVDYNIIGW [MYH7_Y588] | 0.562 | 0.589 | 0.566 | 1.07 | 0.636 | 0.431 | 0.873 | 0.909 | 0.439 | 1.18 | 0.497 | 0.497 | 0.877 | 0.349 | 0.619 | 0.454
AGKEEYSAMRD [HRAS_Y64_Q61K] | 0.867 | 0.559 | 0.761 | 0.799 | 0.467 | 0.505 | 0.529 | 0.582 | 0.481 | 0.871 | 0.432 | 0.49 | 0.644 | 0.44 | 0.629 | 0.436
AIIGIYILRDD [CDH23_Y2949] | 1.47 | 1.11 | 1.04 | 1.24 | 0.831 | 0.788 | 0.484 | 0.753 | 0.676 | 1.5 | 1.18 | 0.951 | 1.35 | 0.546 | 0.965 | 2.76
AKNKDYMSFIR [GNE_Y197_I200F] | 1.09 | 1.23 | 0.754 | 0.606 | 0.812 | 0.648 | 0.478 | 0.478 | 0.34 | 0.646 | 0.61 | 0.946 | 0.647 | 0.465 | 0.661 | 0.972
ALAAPYVLFPS [CEFIP_Y1332_G1337S_YF] | 0.968 | 0.816 | 4.34 | 0.675 | 0.76 | 0.502 | 2.56 | 1.83 | 0.504 | 0.822 | 0.578 | 0.647 | 1.63 | 2.01 | 0.682 | 5
ALAAPYVLYPG [CEFIP_Y1332] | 0.747 | 0.602 | 0.7 | 0.769 | 0.565 | 0.488 | 3.98 | 2.55 | 0.54 | 0.799 | 0.694 | 0.794 | 0.845 | 0.597 | 0.569 | 4.26
ALAHKYPGGGG [HBB_Y146_H147P] | 0.516 | 0.581 | 0.384 | 0.214 | 0.894 | 0.84 | 0.853 | 0.662 | 0.432 | 0.632 | 0.559 | 0.273 | 0.262 | 0.334 | 0.436 | 0.281
ALERPYTSKHS [NANS_Y71] | 0.866 | 0.529 | 0.6 | 0.531 | 0.372 | 0.459 | 0.381 | 0.398 | 0.353 | 0.535 | 0.406 | 0.463 | 0.564 | 0.442 | 0.615 | 0.461
ALKKPYSVLFK [RPF2_Y59_G60S_YF] | 1.6 | 1.65 | 1.58 | 0.815 | 0.411 | 0.43 | 0.556 | 0.617 | 0.502 | 0.968 | 0.419 | 0.435 | 0.729 | 0.448 | 0.581 | 0.526
ALWFIYSHTRS [ENG_Y614_YF] | 1.13 | 0.81 | 0.552 | 1.01 | 0.597 | 0.445 | 0.44 | 0.676 | 0.45 | 1.5 | 0.423 | 0.448 | 0.956 | 0.34 | 0.697 | 0.379
